Consider 27 molecules from patent publication US20260008815A1, “CYCLIC PEPTIDE OR SALT THEREOF, AND USES THEREOF” (FUJIFILM Corporation, priority 2023, published 2026).

The target of the assay is T1, Recombinant Human FGFR2 alpha (IIIc) Fc Chimera Protein, CF (R&D systems, 712-FR-050) (human, UniProt P21802 22-377).
T1 construct: bought; not shown: Fc part of the chimera
The assay is described as follows: ELISA on plate-bound FGFR2-Fc. In outline:
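Peptide binding scored by category from dose-response of background-corrected luminescence (FGFR-coated minus uncoated wells). Detection via anti-Myc antibody (2 h, room temperature) after 3 h peptide incubation on wells coated with 5 ng FGFR2 alpha (IIIc)-Fc.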
Background: ELISA stands for enzyme-linked immunosorbent assay.

Bridge positions count the residues as written; N and C are the ends. Ends that are not written are not given here. COCH2 = acetyl group that carries the bridge

T1 sequence (P21802 22-377, change not shown): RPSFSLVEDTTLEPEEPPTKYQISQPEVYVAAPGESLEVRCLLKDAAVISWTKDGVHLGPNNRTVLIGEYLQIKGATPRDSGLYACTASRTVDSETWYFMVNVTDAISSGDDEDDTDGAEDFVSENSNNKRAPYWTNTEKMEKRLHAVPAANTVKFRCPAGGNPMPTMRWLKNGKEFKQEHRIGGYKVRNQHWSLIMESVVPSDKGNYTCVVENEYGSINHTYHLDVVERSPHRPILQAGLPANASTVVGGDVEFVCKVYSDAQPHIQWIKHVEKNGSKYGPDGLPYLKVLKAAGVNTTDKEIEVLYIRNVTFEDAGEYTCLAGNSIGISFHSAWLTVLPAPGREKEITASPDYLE

B1: cyclic peptide SEQ ID NO: 324 (peptide)
peptide: YCEANYLDPEQYQYFIYFK(COCH2)Y
modifications: thioether 2-19 (inferred)
With B1, the “ELISA luminescence signal at 10 nmol/L peptide, relative to SEQ ID NO: 47 (=1)” value is at least 0.7 ratio.

B2: cyclic peptide SEQ ID NO: 343 (peptide)
peptide: YCEENYLDPEQYKYFIYFK(COCH2)Y
modifications: thioether 2-19; not fully specified; printed as Y-(C)-EENYLDPEQYKYFIYF-(K(acetyl))-Y
In the case of B2, the “ELISA luminescence signal at 10 nmol/L peptide, relative to SEQ ID NO: 47 (=1)” value was at least 0.7 ratio.

B3: cyclic peptide SEQ ID NO: 349 (peptide)
peptide: YCEMNYLDPEQYQYFIYFK(COCH2)Y
modifications: thioether 2-19
Consider B3, for which the “ELISA luminescence signal at 10 nmol/L peptide, relative to SEQ ID NO: 47 (=1)” value is at least 0.7 ratio.

B4: cyclic peptide SEQ ID NO: 336 (peptide)
peptide: YCKENYLDPEQYQYFIYFK(COCH2)Y
modifications: thioether 2-19; not fully specified; printed as Y-(C)-KENYLDPEQYQYFIYF-(K(acetyl))-Y
Consider B4, for which the “ELISA luminescence signal at 10 nmol/L peptide, relative to SEQ ID NO: 47 (=1)” value was at least 0.7 ratio.

B5: cyclic peptide SEQ ID NO: 344 (peptide)
peptide: YCEENYLDPEQYQYFKYFK(COCH2)Y
modifications: thioether 2-19; not fully specified; printed as Y-(C)-EENYLDPEQYQYFKYF-(K(acetyl))-Y
For the molecule B5, the “ELISA luminescence signal at 10 nmol/L peptide, relative to SEQ ID NO: 47 (=1)” value is at least 0.7 ratio.

B6: cyclic peptide SEQ ID NO: 339 (peptide)
peptide: YCEENYKDPEQYQYFIYFK(COCH2)Y
modifications: thioether 2-19; not fully specified; printed as Y-(C)-EENYKDPEQYQYFIYF-(K(acetyl))-Y
As for B6, the “ELISA luminescence signal at 10 nmol/L peptide, relative to SEQ ID NO: 47 (=1)” value is at least 0.7 ratio.

B7: cyclic peptide SEQ ID NO: 347 (peptide)
peptide: MCEENYLDPEQYQYFIYFK(COCH2)Y
modifications: thioether 2-19
For the molecule B7, the “ELISA luminescence signal at 10 nmol/L peptide, relative to SEQ ID NO: 47 (=1)” value was at least 0.7 ratio.

B8: cyclic peptide SEQ ID NO: 327 (peptide)
peptide: YCEENYADPEQYQYFIYFK(COCH2)Y
modifications: thioether 2-19 (inferred)
For the molecule B8, the “ELISA luminescence signal at 10 nmol/L peptide, relative to SEQ ID NO: 47 (=1)” value lay in the range of 0.1 to 0.5 ratio.

B9: cyclic peptide SEQ ID NO: 350 (peptide)
peptide: YCEENMLDPEQYQYFIYFK(COCH2)Y
modifications: thioether 2-19
As for B9, the “ELISA luminescence signal at 10 nmol/L peptide, relative to SEQ ID NO: 47 (=1)” value was at least 0.7 ratio.

B10: cyclic peptide SEQ ID NO: 334 (peptide)
peptide: YCEENYLDPEQYQYFIYFK(COCH2)A
modifications: thioether 2-19
B10: the “ELISA luminescence signal at 10 nmol/L peptide, relative to SEQ ID NO: 47 (=1)” value is at least 0.7 ratio.

B11: cyclic peptide SEQ ID NO: 340 (peptide)
peptide: YCEENYLKPEQYQYFIYFK(COCH2)Y
modifications: thioether 2-19; not fully specified; printed as Y-(C)-EENYLKPEQYQYFIYF-(K(acetyl))-Y
B11: the “ELISA luminescence signal at 10 nmol/L peptide, relative to SEQ ID NO: 47 (=1)” value lay within 0.1 to 0.5 ratio.

B12: cyclic peptide SEQ ID NO: 338 (peptide)
peptide: YCEENKLDPEQYQYFIYFK(COCH2)Y
modifications: thioether 2-19; not fully specified; printed as Y-(C)-EENKLDPEQYQYFIYF-(K(acetyl))-Y
With B12, the “ELISA luminescence signal at 10 nmol/L peptide, relative to SEQ ID NO: 47 (=1)” value lay in the range of 0.1 to 0.5 ratio.

B13: cyclic peptide SEQ ID NO: 325 (peptide)
peptide: YCEEAYLDPEQYQYFIYFK(COCH2)Y
modifications: thioether 2-19 (inferred)
Regarding B13, the “ELISA luminescence signal at 10 nmol/L peptide, relative to SEQ ID NO: 47 (=1)” value is 0.1 to 0.5 ratio.

B14: cyclic peptide SEQ ID NO: 332 (peptide)
peptide: YCEENYLDPEQYQYFAYFK(COCH2)Y
modifications: thioether 2-19
On to B14, for which the “ELISA luminescence signal at 10 nmol/L peptide, relative to SEQ ID NO: 47 (=1)” value was at least 0.7 ratio.

B15: cyclic peptide SEQ ID NO: 342 (peptide)
peptide: YCEENYLDPKQYQYFIYFK(COCH2)Y
modifications: thioether 2-19; not fully specified; printed as Y-(C)-EENYLDPKQYQYFIYF-(K(acetyl))-Y
Turning to B15, the “ELISA luminescence signal at 10 nmol/L peptide, relative to SEQ ID NO: 47 (=1)” value is at least 0.7 ratio.

B16: cyclic peptide SEQ ID NO: 326 (peptide)
peptide: YCEENALDPEQYQYFIYFK(COCH2)Y
modifications: thioether 2-19 (inferred)
As for B16, the “ELISA luminescence signal at 10 nmol/L peptide, relative to SEQ ID NO: 47 (=1)” value fell in the range of 0.1 to 0.5 ratio.

B17: cyclic peptide SEQ ID NO: 333 (peptide)
peptide: YCEENYLDPEQYQYFIAFK(COCH2)Y
modifications: thioether 2-19
With B17, the “ELISA luminescence signal at 10 nmol/L peptide, relative to SEQ ID NO: 47 (=1)” value was at least 0.7 ratio.

B18: cyclic peptide SEQ ID NO: 346 (peptide)
peptide: YCEENYLDPEQYQYFIYFK(COCH2)K
modifications: thioether 2-19; not fully specified; printed as Y-(C)-EENYLDPEQYQYFIYF-(K(acetyl))-K
Consider B18, for which the “ELISA luminescence signal at 10 nmol/L peptide, relative to SEQ ID NO: 47 (=1)” value is at least 0.7 ratio.

B19: cyclic peptide SEQ ID NO: 329 (peptide)
peptide: YCEENYLDAEQYQYFIYFK(COCH2)Y
modifications: thioether 2-19 (inferred)
For the molecule B19, the “ELISA luminescence signal at 10 nmol/L peptide, relative to SEQ ID NO: 47 (=1)” value was at least 0.7 ratio.

B20: cyclic peptide SEQ ID NO: 330 (peptide)
peptide: YCEENYLDPAQYQYFIYFK(COCH2)Y
modifications: thioether 2-19 (inferred)
Regarding B20, the “ELISA luminescence signal at 10 nmol/L peptide, relative to SEQ ID NO: 47 (=1)” value is at least 0.7 ratio.

B21: cyclic peptide SEQ ID NO: 335 (peptide)
peptide: KCEENYLDPEQYQYFIYFK(COCH2)Y
modifications: thioether 2-19; not fully specified; printed as K-(C)-EENYLDPEQYQYFIYF-(K(acetyl))-Y
In the case of B21, the “ELISA luminescence signal at 10 nmol/L peptide, relative to SEQ ID NO: 47 (=1)” value is at least 0.7 ratio.

B22: cyclic peptide SEQ ID NO: 328 (peptide)
peptide: YCEENYLAPEQYQYFIYFK(COCH2)Y
modifications: thioether 2-19 (inferred)
In the case of B22, the “ELISA luminescence signal at 10 nmol/L peptide, relative to SEQ ID NO: 47 (=1)” value was at least 0.7 ratio.

B23: cyclic peptide SEQ ID NO: 337 (peptide)
peptide: YCEKNYLDPEQYQYFIYFK(COCH2)Y
modifications: thioether 2-19; not fully specified; printed as Y-(C)-EKNYLDPEQYQYFIYF-(K(acetyl))-Y
For B23, the “ELISA luminescence signal at 10 nmol/L peptide, relative to SEQ ID NO: 47 (=1)” value was at least 0.7 ratio.

B24: cyclic peptide SEQ ID NO: 348 (peptide)
peptide: YCMENYLDPEQYQYFIYFK(COCH2)Y
modifications: thioether 2-19
As for B24, the “ELISA luminescence signal at 10 nmol/L peptide, relative to SEQ ID NO: 47 (=1)” value is at least 0.7 ratio.

B25: cyclic peptide SEQ ID NO: 345 (peptide)
peptide: YCEENYLDPEQYQYFIKFK(COCH2)Y
modifications: thioether 2-19; not fully specified; printed as Y-(C)-EENYLDPEQYQYFIKF-(K(acetyl))-Y
With B25, the “ELISA luminescence signal at 10 nmol/L peptide, relative to SEQ ID NO: 47 (=1)” value is at least 0.7 ratio.

B26: cyclic peptide SEQ ID NO: 341 (peptide)
peptide: YCEENYLDKEQYQYFIYFK(COCH2)Y
modifications: thioether 2-19; not fully specified; printed as Y-(C)-EENYLDKEQYQYFIYF-(K(acetyl))-Y
As for B26, the “ELISA luminescence signal at 10 nmol/L peptide, relative to SEQ ID NO: 47 (=1)” value is at least 0.7 ratio.

B27: cyclic peptide SEQ ID NO: 331 (peptide)
peptide: YCEENYLDPEQYAYFIYFK(COCH2)Y
modifications: thioether 2-19
As for B27, the “ELISA luminescence signal at 10 nmol/L peptide, relative to SEQ ID NO: 47 (=1)” value is at least 0.7 ratio.
